This is an account of results in patent US20100196385A1 (AstraZeneca / MedImmune, published 2010).

B1: 9G8 IgG2 VH wt/VL C33A (antibody, V domains shown)
VH: QLQLQESGPGLVKPSETLSLSCTVSGGSISSSSSYWGLIRQPPGKGLEWIGSIYYSGSTYYSPSLKSRVSISVDTSKNQFSLKLSSVTAADTAVYFCARQGYGGHPDVFDIWGQGTMVTVSS
VL: SSELTQSPSVSVSPGQTARITCSGDKLGDVYVAWYQQKTGQSPVLVIYEDTKRPSGIPERFSGSNSGNTATLTISGTQVMDEADYYCQAWDSTTAVIFGGGTKLTVL
notes: IgG2
B2: 9G8 IgG2 VH wt/VL C33Y (antibody, V domains shown)
VH: B1 VH
VL: B1 VL with A33Y
notes: IgG2
B3: 9G8 IgG2 VH wt/VL C33G (antibody, V domains shown)
VH: B1 VH
VL: B1 VL with A33G
notes: IgG2
B4: 9G8 IgG2 VH wt/VL C33R (antibody, V domains shown)
VH: B1 VH
VL: B1 VL with A33R
notes: IgG2
B5: 9G8 IgG2 VH wt/VL C33D (antibody, V domains shown)
VH: B1 VH
VL: B1 VL with A33D
notes: IgG2
B6: 2H10 IgG2 VH M93V/VL C33S (antibody, V domains shown)
VH: QVQLVESGGGVVQPGRSLRLSCAASGFTFSRHGMHWVRQAPGKGLEWVAVVWFDGSNIYYADSVKGRFTISRDNSKNTLYLQMNSLRAEDTAVYYCARDSRIAAADYWGQGTLVTVSS
VL: SYELTQPPSVSVSPGQTVSITCSGDKLGDKYVSWYQQKPGQSPVLVIYQESKRPSGIPERFSGSSSGNTATLTISGTQAMDEADYYCQTWDSSLVVFGGGTKLTVL
notes: IgG2
B7: 2H10 IgG2 VH wt/VL C33G (antibody, V domains shown)
VH: B6 VH with V93M
VL: B6 VL with S33G
notes: IgG2
B8: 2H10 IgG2 VH wt/VL C33D (antibody, V domains shown)
VH: B6 VH with V93M
VL: B6 VL with S33D
notes: IgG2
B9: 2H10 IgG2 VH wt/VL C33R (antibody, V domains shown)
VH: B6 VH with V93M
VL: B6 VL with S33R
notes: IgG2
B10: 2H10 IgG2 VH M93V/VL wt (antibody, V domains shown)
VH: B6 VH
VL: B6 VL with S33C
notes: IgG2
B11: 2H10 IgG2 VH wt/VL C33A (antibody, V domains shown)
VH: B6 VH with V93M
VL: B6 VL with S33A
notes: IgG2

Changes are numbered by the printed parent chain. Numbers in names are those of the source.

The test deals with T1, full length human DLL4 (human, UniProt Q9NR61 27-685).
T1 construct: whole, on cells; also called native DLL4 expressed in HEK293 cells
T1 sequence (Q9NR61 27-685): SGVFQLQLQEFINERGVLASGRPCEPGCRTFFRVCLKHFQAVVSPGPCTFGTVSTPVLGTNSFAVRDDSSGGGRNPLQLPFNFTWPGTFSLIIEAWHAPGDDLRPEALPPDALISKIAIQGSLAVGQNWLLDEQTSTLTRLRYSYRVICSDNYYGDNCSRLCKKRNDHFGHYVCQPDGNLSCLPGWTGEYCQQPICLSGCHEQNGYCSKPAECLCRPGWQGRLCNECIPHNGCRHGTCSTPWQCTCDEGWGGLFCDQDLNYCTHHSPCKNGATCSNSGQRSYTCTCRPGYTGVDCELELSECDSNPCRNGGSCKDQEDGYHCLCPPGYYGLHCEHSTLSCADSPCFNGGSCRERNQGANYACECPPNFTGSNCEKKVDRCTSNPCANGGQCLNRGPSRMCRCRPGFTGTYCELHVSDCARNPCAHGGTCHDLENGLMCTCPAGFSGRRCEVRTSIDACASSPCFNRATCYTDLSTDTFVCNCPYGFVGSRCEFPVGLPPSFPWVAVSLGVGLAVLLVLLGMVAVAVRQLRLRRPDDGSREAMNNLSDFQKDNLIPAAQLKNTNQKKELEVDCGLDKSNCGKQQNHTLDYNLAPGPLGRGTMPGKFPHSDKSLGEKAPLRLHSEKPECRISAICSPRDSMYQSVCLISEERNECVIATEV
Kind of test: FACS competition vs Notch1/Fc, HEK293 cells with human DLL4. The protocol:
Further experiments were performed on selected antibodies using HEK293 cells that were stably transfected with either human, mouse or cynomolgus monkey DLL4 using retroviral constructs. In these experiments, anti-DLL4 antibodies (final concentration: 10-0.01 μg/ml) diluted in PBS containing 2% FCS were added to DLL4-expressing HEK 293 cells (50000 cells/well diluted in PBS containing 2% FCS) and incubated for 1 h at 4° C. Subsequently, Alexa-647 labeled human, rat or APC labeled mouse Notch1/Fc (e.g. R&D Systems, catalog #3647-TK-050, 1057-TK-050, 5267-TK-050, respectively) was added at a final concentration of 0.01-0.5 μg/ml and plates were incubated for a further 2 h at 4° C. prior to washing and reading on a FACSCalibur instrument.
The activity of the mutated antibodies was assessed in two ways: firstly, the ability of the antibodies to block the binding of soluble Notch1/Fc to full length human DLL4 stably expressed in HEK293 cells as described in Example 3 was determined and, secondly, the binding of the antibodies to the same cell line used in the receptor-ligand competition studies was determined. For the binding studies, HEK293 cells stably overexpressing human DLL4 were resuspended in PBS containing 2% FCS at a concentration of 50,000 cells/well and incubated with titrations of antibody (final concentrations 0.01-10 μg/ml) for 1 h at 4° C. The cells were then washed and incubated with 0.31 μg/ml anti-human IgG-Fc-FITC (BD Pharmingen, cat#555786) for 30 minutes at 4° C. Bound […] was detected using FACS analysis. Results of these studies are summarized in Table 23, which show the effects of specific mutations to sequences of 9G8 and 2H10 on the ability of the antibodies to compete with Notch1 for binding to human DLL4 or to bind to human DLL4 relative to unmutated antibodies.
As a reminder, the IC50 is the concentration at which inhibition is half-maximal. High values mean a need for much substance, low ones inhibition by little substance. Take B1: the IC50 is 0.302 µg/mL.

Turning to B2, the IC50 came out at 0.32 µg/mL.

In the case of B3, the IC50 is 0.358 µg/mL.

Take B4: the IC50 came out at 0.201 µg/mL.

B5: the IC50 was 0.345 µg/mL.

B6 had an IC50 of 0.138 µg/mL.

Take B7: the IC50 came out at 0.314 µg/mL.

In turn, B8 displayed an IC50 of 0.178 µg/mL.

Consider B9, for which the IC50 was 2.97 µg/mL. Against the preceding molecule, the IC50 is about 17-fold higher.

In the case of B10, the IC50 was determined as 0.264 µg/mL.

B11 returned an IC50 of 0.174 µg/mL.
